Experimental data from PMC7315737, “The putative Escherichia coli dehydrogenase YjhC metabolises two dehydrated forms of N-acetylneuraminate produced by some sialidases” (Bioscience Reports, 2020).

Key:
Assay type in all cases: biochemical, Escherichia coli
purified protein [1] = substrate: [H][C@@]1([C@H](O)[C@H](O)CO)OC(C(=O)O)=C[C@H](O)[C@H]1NC(C)=O; experiment: purified protein; settings: 50 µM NAD+, 30 mM HEPES pH 7.5, 10 mM KCl, 1 mM MgCl2, 37°C, sigmoidal, Hill coefficient 2.59
purified protein [2] = substrate: CC(=O)N[C@H]1[C@H]2O[C@@](C(=O)O)(C[C@@H]1O)O[C@@H]2[C@H](O)CO; experiment: purified protein; settings: 50 µM NAD+, 30 mM HEPES pH 7.5, 10 mM KCl, 1 mM MgCl2, 37°C, sigmoidal, Hill coefficient 2.20
[3] = substrate: NC(=O)c1ccc[n+]([C@@H]2O[C@H](COP(=O)(O)OP(=O)(O)OC[C@H]3O[C@@H](n4cnc5c(N)ncnc54)[C@H](O)[C@@H]3O)[C@@H](O)[C@H]2O)c1; experiment: Neu5Ac formation versus NAD+ concentration, endpoint assay; settings: 1 mM 2,7-AN, 0.45 µM YjhC, 30 mM HEPES pH 7.5, 10 mM KCl, 1 mM MgCl2, 37°C, Ka is a half-activation constant, not an association constant, varied: cofactor

B1: YjhC (Escherichia coli K-12) (protein)
chain: MINYGVVGVGYFGAELARFMNMHDNAKITCVYDPENGENIARELQCINMSSLDALVSSKLVDCVIVATPNYLHKEPVIKAAKNKKHVFCEKPIALSYEDCVDMVKACKEAGVTFMAGHIMNFFNGVQYARKLIKEGVIGEILSCHTKRNGWENKQERLSWKKMKEQSGGHLYHHIHELDCVQHLLGEIPETVTMIGGNLAHSGPGFGNEDDMLFMTLEFPSGKLATLEWGSAFNWPEHYVIINGTKGSIKIDMQETAGSLRIGGQTKHFLVHETQEEDDDRRKGNMTSEMDGAIAYGHPGKKTPLWLASLIRKETLFLHNILCGAKPEEDYIDLLNGEAAMSAIATADAATLSRSQDRKVKISEIIKHTSVM
notes: full-length ORF from ASKA library in pCA24N, N-terminal His6-tag kept, expressed in E. coli BL21
- K0.5 (purified protein [1]): 0.30 mM
- K0.5 (purified protein [2]): 0.45 mM
- K0.5 [3]: 0.84 µM
